Substrate: T1, OCP lacking the NTE comprising the first 20 amino acids (ΔNTE), 6xHis-tagged (Synechocystis sp. PCC 6803) (UniProt P74102)
T1 sequence: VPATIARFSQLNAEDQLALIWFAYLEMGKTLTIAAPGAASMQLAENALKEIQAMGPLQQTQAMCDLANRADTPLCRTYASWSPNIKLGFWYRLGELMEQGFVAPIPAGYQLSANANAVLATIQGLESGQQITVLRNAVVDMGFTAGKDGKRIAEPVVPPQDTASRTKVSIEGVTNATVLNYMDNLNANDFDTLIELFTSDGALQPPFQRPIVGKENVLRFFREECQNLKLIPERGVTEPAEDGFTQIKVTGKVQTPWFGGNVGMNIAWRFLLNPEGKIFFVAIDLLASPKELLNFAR

- amplitude a3 (yield) of the slow component (C3) of flash-induced absorption transients at 550 nm, ΔNTE OCP + FRP (FRP to ΔNTE OCP ratio 1.6), 36 °C: 76%
- time constant t1 of the fast component (C1) of flash-induced absorption transients at 550 nm, ΔNTE OCP + FRP (FRP to ΔNTE OCP ratio 1.6), 36 °C: 70.4 µs
B1: Fluorescence Recovery Protein (FRP), 6xHis-tagged (natural protein)
chain: MLQTAEAPWSQAETQSAHALFRKAYQRELDGLLATVQAQASQITQIDDLWKLHDFLSAKRHEIDGKYDDRQSVIIFVFAQLLKEGLVQAEELTFLAADKQSKIKALARL
